{"source": "patent US20130115677", "key": {"[1]": {"test_system": "T1, BsmBI (Bacillus stearothermophilus)", "T1 sequence": "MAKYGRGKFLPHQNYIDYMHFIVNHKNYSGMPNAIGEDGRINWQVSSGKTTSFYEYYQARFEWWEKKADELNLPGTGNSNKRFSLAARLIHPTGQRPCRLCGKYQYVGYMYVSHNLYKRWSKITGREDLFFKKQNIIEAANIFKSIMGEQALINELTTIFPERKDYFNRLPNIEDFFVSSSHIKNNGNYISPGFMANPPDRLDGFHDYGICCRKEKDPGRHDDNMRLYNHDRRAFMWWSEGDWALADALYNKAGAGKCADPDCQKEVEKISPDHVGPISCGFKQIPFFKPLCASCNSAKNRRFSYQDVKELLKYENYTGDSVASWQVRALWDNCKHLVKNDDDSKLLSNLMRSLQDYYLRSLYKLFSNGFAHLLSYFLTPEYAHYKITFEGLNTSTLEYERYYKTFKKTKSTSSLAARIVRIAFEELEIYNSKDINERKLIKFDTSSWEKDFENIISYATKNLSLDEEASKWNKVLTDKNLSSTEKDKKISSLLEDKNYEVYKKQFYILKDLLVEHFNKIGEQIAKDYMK", "test": "cleavage_in_vitro", "conditions": "NEB4, 55 C, Mg2+"}, "[2]": {"biological_target": "T2, BamHI (Bacillus amyloliquefaciens) (UniProt P23940)", "T2 sequence": "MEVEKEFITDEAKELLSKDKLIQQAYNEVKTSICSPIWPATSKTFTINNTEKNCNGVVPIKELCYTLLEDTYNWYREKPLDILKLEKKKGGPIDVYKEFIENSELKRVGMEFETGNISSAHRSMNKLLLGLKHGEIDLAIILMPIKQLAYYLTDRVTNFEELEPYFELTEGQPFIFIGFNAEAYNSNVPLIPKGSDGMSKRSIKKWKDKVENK", "test": "cleavage_in_vitro", "conditions": "NEB4, 37 C, Mg2+"}}}
{"substance": "lambda DNA", "values": [{"measurement": "activity (fidelity index)", "setting": "[1]", "result": 4}, {"measurement": "activity (fidelity index)", "setting": "[2]", "result": 4}]}
